Paper doi:10.1101/577437 (bioRxiv, 2019)

Molecular target: T1, RALA (residues 1-183) (UniProt P11233 1-183)
T1 sequence: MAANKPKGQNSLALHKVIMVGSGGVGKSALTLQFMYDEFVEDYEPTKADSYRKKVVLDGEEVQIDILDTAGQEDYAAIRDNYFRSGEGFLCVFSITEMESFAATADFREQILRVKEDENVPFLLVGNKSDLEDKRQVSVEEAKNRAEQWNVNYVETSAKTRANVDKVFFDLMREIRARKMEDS
Assay: NMR titration

binding result: binds
B1: human RLIP76 RBD (residues 395-517) (domain or fragment)
chain: QAGIKEEIRRQEFLLNCLHRDLQGGIKDLSKEERLWEVQRILTALKRKLREAKRQECETKIAQEIASLSKEDVSKEEMNENEEVINILLAQENEILTEQEELLAMEQFLRRQIASEKEEIERL
